Patent US20130171217A1, “ENZYMATIC PERACID GENERATION FOR USE IN SKIN CARE PRODUCTS” (E I DU PONT DE NEMOURS AND COMPANY, priority 2010, published 2013)

What was measured:
[1] = One-step procedure on hair tresses, hair color loss ΔE
Description: The hair tresses in these examples were cut from the stock medium brown hair swatches that were custom made by International Hair Importers (Glendale, N.Y.). Each hair tress was glued at one end, and cut at 5 mm width and 4 cm long (excluding the glued portion), with 100+/−20 mg net hair weight. For each test condition, triplicates of hair tresses were used. In the one-step procedure, each hair tress was placed in a clean plastic weighing tray (VWR, Cat. #12577-053), then 1 mL of the perhydrolase HC1121 solution in a buffer was applied to the hair tress, and was rubbed into the hair tress with an applicator. Then calculated amount of triacetin and 30% H2O2 were applied onto each hair tress and rubbed into the hair tress which gave 200 mM triacetin and 100 mM H2O2. The hair tress sat in this reaction mixture for 30 min, before being washed thoroughly with tap water followed by paper towel dry. This completed a 30 min treatment cycle. The treatment cycle was repeated 16 times. Hair tress became lighter-colored and weakened during the treatment. After final rinse and air-drying, tensile strength tests as described in Example 25 were conducted on each hair tress to quantify hair weakening. In addition, L*, a*, b* color measurements were taken for each hair sample to quantify hair color loss, and L*, a*, b* color measurements were also taken for untreated hair as a reference for ΔE color difference calculations. ΔE was calculated in the standard way as ΔE=((L*−L*ref)^2+(a*−a*ref)^2+(b*−b*ref)^2)^0.5. […] At pH 6, when 30 μg/mL HC1121 was used which gave 0.3 μg/mg hair E/H ratio, the tensile strength of treated hair tress reduced to 1.9 N/mg hair, approaching 1.5 N/mg hair, the benchmark strength of hair treated with NAIR® cream for 5 min. At pH 7, when 30 μg/mL HC1121 was used, the tensile strength of treated hair tress was 0.3 N/mg hair, much less than the 1.5 N/mg hair benchmark. Therefore, proper concentration of enzyme at proper pH could weaken hair effectively. The measured hair color loss for treated hair tresses correlated well with the weakening of hair: the greater hair weakening, the greater hair color loss.
Hair tresses were treated using the same procedure as described in Example 40, except that SLES (sodium laurel ether sulfate, a common soap ingredient) wash step was added before tap water rinse step each cycle to imitate daily shower in real life, where 1 mL 1% SLES (“RHODAPEX ES 2K” by Rhodia Inc., Cranbury, N.J.) was transferred onto hair tress and the hair tress was rubbed with gloved hand on the palm for 30 seconds. The treatment parameters for this example (enzyme concentration, pH and buffer concentration, and treatment cycle time) were shown in Table 34. For the 24 hr treatment cycle, the hair tress sat in the mixture for 1 hr before being taken out to a dry dish. The hair tress sat dry for 23 hr before being washed with 1 mL 1% SLES followed by tap water rinse and paper towel dry. For the 30 min treatment cycles, the treatment cycle was repeated 16 times. […] After final rinse and air-drying for each hair tress, tensile strength test and color measurement as described in Example 40 were conducted on each hair tress to quantify hair weakening and hair color loss. […] Hair tensile strength ranged from 0.3 to 0.8 N/mg hair, much less than the 1.5 N/mg hair tensile strength benchmark. Stronger hair weakening occurred at higher buffer concentration and longer treatment time. […] Therefore, it was anticipated that even lower enzyme concentration could be used to reach benchmark hair weakening at slightly higher pH (pH 6.6 compared to pH 6 in Example 40), higher buffer concentration and longer treatment time.
Hair tresses were treated using the same procedure for 24 hr treatment cycles as described in Example 41 using 10 μg/mL HC1121 at pH 6.6 and substrates at various concentrations. […]

[2] = Assay for bound perhydrolase enzyme activity after treatment cycles (ABTS); assay type: binding
Description: The enzyme used in the following example was HC1121 (T. maritima C277S-HC263; SEQ ID NO: 288) and concentration used was 2500 μg/mL (E/H=10*). Enzyme solution was made in 5% TWEEN®-20 surfactant in 50 mM citrate buffer at pH 6. Approximately 0.8 mL of the enzyme solution was applied on ˜200 mg hair samples (4 test tresses) for 10 minutes. H2O2 and triacetin, formulations were made according to Example 24, in 20% LUBRIDERM® lotion in 50 mM citrate buffer at pH 6. After application of 400 μL each of the reagents, the treatment was allowed to continue for 20 minutes after which the hair was rinsed with tap-water and allowed to dry. Before proceeding with the next cycle the sample was subjected to the surfactant wash with 5% TWEEN®-20 in 50 mM citrate buffer at pH 6 and rinsed with tap-water.
After treatment for a defined number of cycles, 10 mg of hair was cut from each tress and placed into 2 mL microcentrifuge tubes (Eppendorf Protein LoBind; Eppendorf North America, Hauppauge, N.Y.). To each tube was added 480 uL of PAH buffer (50 mM potassium phosphate pH 7.2), 14 μL of 30% hydrogen peroxide (Sigma 3410), and 6 μL triacetin (Sigma-Aldrich, W200700). The perhydrolase reaction was allowed to proceed for 10 minutes at 25° C. The reaction was stopped by diluting aliquots 10×, 100× and 1000× with 10 mM phosphoric acid. For detection, 50 μL of 1 M acetic acid, 50 μL of 40 mg/mL potassium iodide, and 50 μL of 4 mM ABTS (2,2′-azino-bis(3-ethylbenzthiazoline-6-sulphonic acid; Sigma, St Louis, Mo.) were added to 50 μL of the above dilutions. Color was allowed to develop for 10 minutes and read in a spectrophotometer at 405 nm. Values from no-enzyme controls were subtracted to yield values attributable only to enzyme activity. A standard curve of OD 405 nm vs PAA concentration in ppm yielded a conversion factor of 8.75, such that an OD 405 nm of 1.0 corresponded to approximately 8.75 ppm PAA. This value was then multiplied by the appropriate dilution to arrive at the PAA concentration in the perhydrolase reaction.

[3] = One-step procedure on hair tresses, tress tensile strength; details: 10 μg/mL HC1121, pH 6.6, 50 mM phosphate, 8 cycles
[4] = 200 mM TA/200 mM H2O2, 24 hr/cycle

B1: C277S-HC263: C277S variant of Thermotoga maritima perhydrolase fused via a flexible linker to hair-binding domain HC263 (protein)
chain: MAFFDLPLEELKKYRPERYEEKDFDEFWEETLAESEKFPLDPVFERMESHLKTVEAYDVTFSGYRGQRIKGWLLVPKLEEEKLPCVVQYIGYNGGRGFPHDWLFWPSMGYICFVMDTRGQGSGWLKGDTPDYPEGPVDPQYPGFMTRGILDPRTYYYRRVFTDAVRAVEAAASFPQVDQERIVIAGGSQGGGIALAVSALSKKAKALLCDVPFLCHFRRAVQLVDTHPYAEITNFLKTHRDKEEIVFRTLSYFDGVNFAARAKIPALFSVGLMDNISPPSTVFAAYNYYAGPKEIRIYPYNNHEGGGSFQAVEQVKFLKKLFEKGGPGSGGAGSPGSAGGPGSPSAQSQLPDKHSGLHERAPQRYGPEPEPEPEPIPEPPKEAPVVIEKPKPKPKPKPKPPAHDHKNQKETHQRHAAGSGGGGSPHHHHHH
Hair color loss avg ΔE ([1]; 10 μg/mL HC1121, pH 6.6, 50 mM phosphate, 200 mM TA/100 mM H2O2, 24 hr/cycle, 8 cycles): 13.8 | Hair color loss avg ΔE ([1]; 10 μg/mL HC1121, pH 6.6, 50 mM phosphate, 200 mM TA/200 mM H2O2, 24 hr/cycle, 8 cycles): 16.7 | Hair color loss avg ΔE ([1]; 10 μg/mL HC1121, pH 6.6, 50 mM phosphate, 200 mM TA/300 mM H2O2, 24 hr/cycle, 8 cycles): 20.1 | Hair color loss avg ΔE ([1]; 10 μg/mL HC1121, pH 6.6, 50 mM phosphate, 200 mM TA/500 mM H2O2, 24 hr/cycle, 8 cycles): 21.8 | Hair color loss avg ΔE ([1]; 10 μg/mL HC1121, pH 6.6, 50 mM phosphate, 500 mM TA/500 mM H2O2, 24 hr/cycle, 8 cycles): 22.3 | Hair color loss avg ΔE ([1]; one-step, 5 μg/mL enzyme, pH 6, 30 min × 16): 5.2 | Hair color loss avg ΔE ([1]; one-step, 15 μg/mL enzyme, pH 6, 30 min × 16): 6.8 | Hair color loss avg ΔE ([1]; one-step, 30 μg/mL enzyme, pH 6, 30 min × 16): 8.7 | Hair color loss avg ΔE ([1]; one-step, 30 μg/mL enzyme, pH 7, 30 min × 16): 16.6 | Hair color loss avg ΔE ([1]; one-step, pH 6.6, 50 mM buffer, 30 min/cycle X 16 cycles, SLES wash each cycle): 17.7 | Hair color loss avg ΔE ([1]; one-step, pH 6.6, 50 mM buffer, 24 hr/cycle X 7 cycles, SLES wash each cycle): 15.6 | Hair color loss avg ΔE ([1]; one-step, pH 6.6, 100 mM buffer, 30 min/cycle X 16 cycles, SLES wash each cycle): 24.2 | OD 405nm ([2]; 10 mg hair after 1 cycle): 0.172 | PAA ([2]; 10 mg hair after 1 cycle, 10 min reaction): 150.8 ppm | OD 405nm ([2]; 10 mg hair after 4 cycles): 0.439 | PAA ([2]; 10 mg hair after 4 cycles): 384.1 ppm | OD 405nm ([2]; 10 mg hair after 8 cycles): 0.901 | PAA ([2]; 10 mg hair after 8 cycles): 788.4 ppm | OD 405nm ([2]; 10 mg hair after 12 cycles): 1.287 | PAA ([2]; 10 mg hair after 12 cycles): 1126.1 ppm | OD 405nm ([2]; 10 mg hair after 16 cycles): 1.894 | PAA ([2]; 10 mg hair after 16 cycles): 1657 ppm | Strength N/mg Hair, replicate1 [3, 4]: 1.04 N/mg Hair | Strength N/mg Hair, replicate2 [3, 4]: 0.57 N/mg Hair | Strength N/mg Hair, replicate2 ([3]; 500 mM TA/500 mM H2O2, 24 hr/cycle): 0.55 N/mg Hair
